Results from US20250136678A1 (BIOSION, published 2025).

B1: huE1B1B8C7-V17 (antibody, human IgG1, kappa, V domains shown)
VH: QVQLVQSGAEVKKPGASVKVSCKASGYTFTNYWVNWVRQAPGQGLEWIGMVHPSGSETRLNQQFKDKATLTVDTSTSTVYMELSSLRSEDTAVYYCARVWSGNAFDYWGQGTLVTVSS
VL: DIVMTQSPDSLAVSLGERATINCLSSQSLLASGNQRNYLTWYQQKPGQPPKLLIYWASTRDSGVPDRFTGSGSGVDFTLTISSLQAEDVAVYYCQNGFSFPFTFGQGTKLEIKR
notes: Humanized, human IgG1/kappa; X positions as numbered in CLM-00003 and CLM-00004
B2: huE1B1B8C7-V12 (antibody, human IgG1, kappa, V domains shown)
VH: QVQLVQSGAEVKKPGASVKVSCKASGYSFTNYWVNWVRQAPGQGLEWIGMVHPSGSETRLNQQFKDKATLTVDKSTSTAYMELSSLRSEDTAVYYCARVWSGNAFDYWGQGTLVTVSS
VL: DIVMTQSPDSLAVSLGERATINCLSSQSLLASGNQRNYLTWYQQKPGQPPKLLIYWASTRDSGVPDRFTGSGSGTDFTLTISSVQAEDVAVYYCQNGFSFPFTFGQGTKLEIKR
B3: huE1B1B8C7-V14 (antibody, human IgG1, kappa, V domains shown)
VH: QVQLVQSGAEVKKPGASVKVSCKASGYTFTNYWVNWVRQAPGQGLEWIGMVHPSGSETRLNQQFKDKATLTVDTSTSTVYMELSSLRSEDTAVYYCARVWSGNAFDYWGQGTLVTVSS
VL: DIVMTQSPDSLAVSLGERATINCLSSQSLLASGNQRNYLTWYQQKPGQPPKLLIYWASTRDSGVPDRFTGSGSGTDFTLTISSVQAEDVAVYYCQNGFSFPFTFGQGTKLEIKR
notes: as for B1
B4: huE1B1B8C7-V11 (antibody, human IgG1, kappa, V domains shown)
VH: QVQLVQSGAEVKKPGASVKVSCKASGYTFTNYWVNWVRQAPGQGLEWIGMVHPSGSETRLNQQFKDKATLTVDTSTSTVYMELSSLRSEDTAVYYCARVWSGNAFDYWGQGTLVTVSS
VL: DIVMTQSPDSLAVSLGERATINCLSSQSLLASGNQRNYLTWYQQKPGQPPKLLIYWASTRDSGVPDRFSGSGSGVDFTLTISSVQAEDVAVYYCQNGFSFPFTFGQGTKLEIKR
notes: as for B1
B5: huE1B1B8C7-V15 (antibody, human IgG1, kappa, V domains shown)
VH: QVQLVQSGAEVKKPGASVKVSCKASGYSFTNYWVNWVRQAPGQGLEWIGMVHPSGSETRLNQQFKDKATLTVDKSTSTAYMELSSLRSEDTAVYYCARVWSGNAFDYWGQGTLVTVSS
VL: DIVMTQSPDSLAVSLGERATINCLSSQSLLASGNQRNYLTWYQQKPGQPPKLLIYWASTRDSGVPDRFTGSGSGVDFTLTISSLQAEDVAVYYCQNGFSFPFTFGQGTKLEIKR
notes: as for B1
B6: huE1B1B8C7-V10 (antibody, human IgG1, kappa, V domains shown)
VH: QVQLVQSGAEVKKPGASVKVSCKASGYSFTNYWVNWVRQAPGQGLEWIGMVHPSGSETRLNQQFKDKATLTVDTSTSTVYMELSSLRSEDTAVYYCARVWSGNAFDYWGQGTLVTVSS
VL: DIVMTQSPDSLAVSLGERATINCLSSQSLLASGNQRNYLTWYQQKPGQPPKLLIYWASTRDSGVPDRFSGSGSGVDFTLTISSVQAEDVAVYYCQNGFSFPFTFGQGTKLEIKR
notes: as for B1
B7: huE1B1B8C7-V16 (antibody, human IgG1, kappa, V domains shown)
VH: QVQLVQSGAEVKKPGASVKVSCKASGYSFTNYWVNWVRQAPGQGLEWIGMVHPSGSETRLNQQFKDKATLTVDTSTSTVYMELSSLRSEDTAVYYCARVWSGNAFDYWGQGTLVTVSS
VL: DIVMTQSPDSLAVSLGERATINCLSSQSLLASGNQRNYLTWYQQKPGQPPKLLIYWASTRDSGVPDRFTGSGSGVDFTLTISSLQAEDVAVYYCQNGFSFPFTFGQGTKLEIKR
notes: as for B1
B8: mouse antibody E1B1B8C7 (antibody, V domains shown)
VH: QVQLQQPGAELVRPGTSVKLSCKASGYSFTNYWVNWVKQRPGQGLEWIGMVHPSGSETRLNQQFKDKATLTVDKSSNTAYMQLNRPTSEDSAVYYCARVWSGNAFDYWGQGTTLIVSS
VL: DIVMTQSPSSLTVTAGEKVTLNCLSSQSLLNSGNQRNYLTWYQQKPGQPPKLLIYWASTRDSGVPDRFTGGGSGVDFTLTIYRVQAEDLAFYYCQNGFSFPFTFGSGTKLEMK
notes: Mouse hybridoma monoclonal antibody; also called mouse E1B1B8C7
B9: mouse antibody E1H4C3E5 (antibody, V domains shown)
VH: QVQLQQPGAELVRPGTSVKLSCKASGYSFTNYWMNWVKQRPGQGLEWIGMIHPSGSESRLNQKFKDKATLTVDKSSNTAYMQLNRPTSADSAVYYCARVWSGNAFDYWGQGTTLIVSS
VL: DIVMTQSPSSLTVTAGEKVTLSCMSSQSLLNSGNQKNYLTWYQQKPGQPPKLLIFWASTRDSGVPDRFTGGGSGTLFTLTIYRVQAEDLAFYYCQNGFSFPFTFGSGTKLEMR
notes: Mouse hybridoma monoclonal antibody
B10: mouse antibody E1A1F4B5 (antibody, V domains shown)
VH: QVQLQQPGAELVRPGTSVKLSCKASGYSFTNYWVNWVKQRPGQGLEWIGMIHPSGSETRLNQRFRDKTTLTVDRSSNTAYMQLNRPTSEDSAVYYCARVWSGNAFDYWGQGTTLIVSS
VL: DIVMTQSPSSLTVTAGEKVTLNCMSSQSLLNSGNQKNYLTWYQQKPGQPPKLLIYWASTRDSGVPDRFTGGGSGVDFTLTIYRVQAEDLAFYFCQNGFSFPFTFGSGTKLEMK
notes: Mouse hybridoma monoclonal antibody purified on Protein A

Each binder was assayed against T1, human CLDN18.2 (NP_001002026.1) (human, UniProt P56856-2 1-261) (assay: cell-based binding FACS on BAF3-CLDN18.2 cells, MFI against Con of mAb, nM is the unit of the x axis; curve lies in a bundle of close curves reaching MFI about 5300-5900).
T1 construct: whole, on cells; KATO III cells also served as target cells in the ADCC assay; also called Claudin18.2; Claudin-18 splice variant 2
Protocol: (§1) The BAF3-CLDN18.2, BAF3-CLDN18.1 and BAF3 cells were harvested, washed twice and re-suspended in phosphate buffered saline (PBS) containing 2% v/v Fetal Bovine Serum (FACS buffer), BAF3 cells were used here as blank control. The cells, 1×10⁵ per well, were incubated in 96 well-plates with 100 μl serially diluted antibodies or controls (starting from 10 μg/mL, 5-fold serial dilution) in FACS buffer for 50 minutes on ice. […] Following an incubation of 50 minutes at 4° C. in dark, cells were washed three times and re-suspended in FACS buffer. Fluorescence was measured using a Becton Dickinson FACS Canto II-HTS equipment, and the MFI (mean fluorescence intensity) was plotted against antibody concentration. Data was analyzed using Graphpad Prism and EC₅₀ values were reported.
An EC50 of 4.87 nM was found for B1 in this work.
An EC50 of 3.06 nM was found for B2 in this work.
An EC50 of 4.03 nM was found for B3 in this work.
An EC50 of 5.39 nM was found for B4 in this work.
An EC50 of 2.76 nM was found for B5 in this work.
An EC50 of 5.74 nM was found for B6 in this work.
An EC50 of 3.29 nM was found for B7 in this work.

Each binder was assayed against T1, human CLDN18.2 (NP_001002026.1) (assay: cell-based blocking FACS on BAF3-CLDN18.2 cells; competitor: biotin labeled Zolbetuximab, SA-PE detection, nM is the unit of the x axis; signal falls from about 800-870 to about 110 at the last point).
Protocol: The anti-CLDN18.2 antibodies of the disclosure, and the controls were diluted with FACS buffer starting from 10 μg/mL with 5-fold serial dilution. BAF3-CLDN18.2 cells were harvested from cell culture flasks at the log phase, washed twice and re-suspended in PBS containing 2% v/v Fetal Bovine Serum (FACS buffer). […] Then the cells were washed twice with FACS buffer, added with 100 μl/well SA-PE (1:200 dilution in FACS buffer, Cat #:016-110-084, Jackson Immunoresearch), and incubated for 40 minutes at 4° C. in dark. Cells were washed twice and re-suspended in FACS buffer. Fluorescence was measured using a Becton Dickinson FACS Canto II-HTS equipment. Data was analyzed using Graphpad Prism and IC₅₀ values were reported.
An IC50 of 6.86 nM was found for B8 in this work.
An IC50 of 4.38 nM was found for B9 in this work.
An IC50 of 5.29 nM was found for B10 in this work.

What follows are binders tested against T1, human CLDN18.2 (NP_001002026.1) (assay: cell-based binding FACS on BAF3-CLDN18.2 cells, MFI against Con of mAb, nM is the unit of the x axis; the three mouse curves overlap and level off near MFI 2300-2400).
Protocol: as §1
An EC50 of 2.24 nM was found for B8 in this work.
An EC50 of 1.49 nM was found for B9 in this work.
An EC50 of 1.76 nM was found for B10 in this work.
